Residue numbers refer to the chain shown, from its start.
B1: zCUSB0136.8-4 (antibody, V domains shown)
VH: QVQLQESGPGLVKPSETLSLTCTVSGFSLTVYDIIWIRQSPGKGLEWLGVIWTGGDTTYNSAFMSRLTISKDTSKNQISLKMSSLTAADTAVYYCARDWMYWGQGTLVTVSS
VL: DIVLTQSPDSLAVSLGERATISCRASESVDNYGNSFIQWYQQKPGQPPKLLIYFASYLQSGVPDRFSGSGSGTDFTLTISSVQAEDVATYYCHQNNEDPFTFGGGTKLEIK
notes: also called CUSB0136-BMVH.3d with CUSB0136-BMVL.2b
B2: zCUSB0136.8-2 (antibody, V domains shown)
VH: B1 VH with M100I
VL: B1 VL
notes: also called CUSB0136-BMVH.3b with CUSB0136-BMVL.2b
B3: zCUSB0136.8-3 (antibody, V domains shown)
VH: B1 VH with M100A
VL: B1 VL
notes: also called CUSB0136-BMVH.3c with CUSB0136-BMVL.2b
B4: zCUSB0136.8-1 (antibody, V domains shown)
VH: B1 VH with V31T, T58W, M100A
VL: B1 VL with Y32W
notes: also called CUSB0136-BMVH.3a with CUSB0136-BMVL.2a
B5: mCUSB0124 (antibody, V domains shown)
VH: QIQLVQSGPELKKPGETVKISCKASGYIFTNYGVTWVKQTPGKGLKWMTWINTNTGEPTSAEEFKGRFDFSSETSATTAYLQINNLKNEDTATYFCVRIRENAMDYWGQGTSVTVSS
VL: DIQMTQSPASQSASLGESVTITCLASQTIGTWLAWYQQKPGKSPQLLIYAATRLAVGVPSRFSGSGSGTKFSFKISRLQAEDFVSYYCQQLYSTPFTFGSGTKLEIK
notes: Mouse monoclonal antibody purified from hybridoma
B6: mCUSB0126 (antibody, V domains shown)
VH: VKLVESGGDLVKPGGSLKLSCAASGFPFSSYLMSWVRQTPEKRLEWVAAISGGGRDTYYPDNVKGRFTISRDNARNILYLQMSSLRSEDTAVYYCATRGSYAMDYWGQGTSVTVSS
VL: B5 VL with L46I, R53N, V56D, R77S, T94I, F96W, S100G
notes: as for B5
B7: mCUSB0129 (antibody, V domains shown)
VH: B6 VH with D9G, N62S, V92L, T97R
VL: B5 VL with L46I, A50D, R53N, V56D, R77S, T94I, F96W, S100G
notes: as for B5
B8: mCUSB0103 (antibody, V domains shown)
VH: DVKLVESGGGLVKPGGSLKLSCAASGFTFSSYTMSWVRQTPEKRLEWVAAISGGGSYTYYADSVKGRFTISRDNAKNTLSLQMSSLKSEDTAMYFCTSPYDFAMDYWGQGTSVTVSS
VL: DIQMTQTTSSLSASLGDRVTISCRASQDITNYLNWYQQKPDGSVKLLIYYTSRLHSGVPSRFRGSGSGTDYSLTISNLEQEDIATYFCQQGNTLPWTFGGGTKLEIK
notes: as for B5
B9: mCUSB0123 (antibody, V domains shown)
VH: QVQLQQSGPELVRPGESVKISCKGSGYTFTDYVMHWVKQSHAKSLEWIGVITIYNDITNYNQKFKGKATMTIDKSSSTAYMELARLTSEDSAIYYCAREGYDSYWYFDVWGAGTTVTVSS
VL: DVLMTQTPLSLPVSLGDQASISCRSSQTIVHSNGNTYLEWYLQKPGQSPKLLIYKVSNRFSGVPDRFSGSGSGTDFTLKISRVEAEDLGVYYCFQGSHLPYTFGGGTKLEIK
notes: as for B5
B10: mCUSB0125 (antibody, V domains shown)
VH: DVQLRESGPGLVKPSQSLSLTCTVTGYSITSDYAWNWIRQFPGNKLEWMGYIYYSGTTSYNPSLKSRISITRDTSKNQFFLQLNSVTTEDTATYYCARNYGSAFYYFDYWGQGTTLTVSS
VL: DILMTQSPSSMSVSLGDTVTITCHASQGISSNIGWLQQKPGKSFKGLIYRGTNLEDGVPSRFSGSGSGADYSLTISSLESEDFADYYCVQYAQFPPTFGGGTKLEIK
notes: as for B5
B11: mCUSB0136 (antibody, V domains shown)
VH: QVQLKESGPGLVAPSQSLSITCTVSGFSLTTYDIIWIRQSPGKGLEWLGVIWTGGDTNYNSAFMSRLSISKDNSKSQIFLKMNSLQTDDTAIYYCVRDWAYWGQGTLVTVST
VL: NIVLTQSPASLAVSLGQRATISCRASESVDNYGNSFIQWYQQKPGQPPKLLIYFASNLQSGVPARFSGSGSRTDFTLTIDPVEADDAATYYCHQNNEDPFTFGSGTKLEIK
notes: as for B5
B12: xCUSB0124 (antibody, human IgG4, V domains shown)
VH: B5 VH
VL: B5 VL
notes: Chimeric: mouse variable regions joined to human IgG4/kappa constant regions; also called chimeric CUSB0124; not shown: human IgG4 constant region, UniProt P01861; human kappa constant region, UniProt P01834
B13: xCUSB0126 (antibody, human IgG4, V domains shown)
VH: B6 VH
VL: B5 VL with L46I, R53N, V56D, R77S, T94I, F96W, S100G
notes: Chimeric: mouse variable regions joined to human IgG4/kappa constant regions; also called chimeric CUSB0126; not shown: human IgG4 constant region, UniProt P01861; human kappa constant region, UniProt P01834
B14: xCUSB0129 (antibody, human IgG4, V domains shown)
VH: B6 VH with D9G, N62S, V92L, T97R
VL: B5 VL with L46I, A50D, R53N, V56D, R77S, T94I, F96W, S100G
notes: Chimeric: mouse variable regions joined to human IgG4/kappa constant regions; also called chimeric CUSB0129; not shown: human IgG4 constant region, UniProt P01861; human kappa constant region, UniProt P01834
B15: xCUSB0103 (antibody, human IgG4, V domains shown)
VH: B8 VH
VL: B8 VL
notes: Chimeric: mouse variable regions joined to human IgG4/kappa constant regions; also called chimeric CUSB0103; not shown: human IgG4 constant region, UniProt P01861; human kappa constant region, UniProt P01834
B16: Modified Seq23 (modified zCUSB0136.8 antibody) (antibody, V domains shown)
VH: B1 VH with T58N, M100A
VL: B1 VL with Y32W
B17: Modified Seq16 (modified zCUSB0136.8 antibody) (antibody, V domains shown)
VH: B1 VH with V31T, M100A
VL: B1 VL
B18: Modified Seq13 (modified zCUSB0136.8 antibody) (antibody, V domains shown)
VH: B1 VH with V31T, M100A
VL: B1 VL
B19: Modified Seq24 (modified zCUSB0136.8 antibody) (antibody, V domains shown)
VH: B1 VH with M100A
VL: B1 VL with Y57Q
B20: Modified Seq25 (modified zCUSB0136.8 antibody) (antibody, V domains shown)
VH: B1 VH with V31T, M100A
VL: B1 VL with Y57H

What follows are binders tested against T1, recombinant human PD-1 His-tag protein (R&D Systems) (human, UniProt Q15116 25-167) (assay: SPR, Biacore T200, as in Example 8 (antibody on Protein G chip, PD-1 His-tag injected)).
T1 construct: Bought reagent; Used for the ELISA (coated) and for SPR (analyte); also called PD-1 protein; human PD-1 protein; not shown: His-tag
Procedure: (§1) The Biacore T200 instrument, equipped with a Protein G sensor chip (GE Healthcare), was used to determine the binding kinetics between chimeric anti-PD-1 antibodies and PD-1 protein. Each purified chimeric anti-PD-1 antibody (1 μg/mL) was injected into the chip with a flow rate of 30 μL/min for 60 sec. […] The HBS-EP+buffer (GE Healthcare) was used as a buffer blank and diluent. The association constant (kₒₙ), dissociation constant (koff), and equilibrium constant (KD) values were calculated using Biacore T200 evaluation software (version 3.1) with a 1:1 Langmuir binding model curve fitting.

T1 sequence (Q15116 25-167 limits assumed): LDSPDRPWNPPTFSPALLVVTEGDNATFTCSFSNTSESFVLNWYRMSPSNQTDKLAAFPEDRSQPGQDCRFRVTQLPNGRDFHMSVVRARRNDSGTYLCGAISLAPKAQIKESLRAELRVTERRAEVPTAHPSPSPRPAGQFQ

| Binder | Kd | koff | kon |
| --- | --- | --- | --- |
| B1 | 0.0159 nM | 7.02e-05 s⁻¹ | 4.42e+06 M⁻¹ s⁻¹ |
| B2 | 0.0155 nM | 7.27e-05 s⁻¹ | 4.68e+06 M⁻¹ s⁻¹ |
| B3 | 0.0208 nM | 9.31e-05 s⁻¹ | 4.48e+06 M⁻¹ s⁻¹ |
| B4 | 0.0237 nM | 0.000142 s⁻¹ | 6e+06 M⁻¹ s⁻¹ |

The binders below were run against T1, recombinant human PD-1 His-tag protein … (assay: ELISA, PD-1 His-tag coated on plate, anti-mouse IgG Fc-HRP detection).
Procedure: (§2) ELISA technique was used to select hybridoma mini-pools producing anti-PD-1 antibodies using the following procedure. MaxiSorp ELISA plate was coated with PD-1 His-tag (R&D System) in PBS buffer (10 ng/100 μL/well) at 4° C. overnight. […] The culture supernatant of each mini-pool (100 μL) was added to the plate then incubated for 1 hour at 37° C. After washing, the plate was probed with goat anti-mouse IgG Fcγ-HRP (Jackson Immuno Research) diluted 1:8,000 in PBST (100 μL/well) and incubated for 1 hour at 37° C. […] 1 M H₂SO₄ (50 μL/well) was used to stop the reaction. […] Hybridoma mini-pools with absorbance values of more than 1.0 were selected for further screening.
The purified antibodies were 2-fold serial diluted for eleven rounds starting from 2 μg/mL until reaching the final concentration of 0.977 ng/mL. The PD-1 binding activity of purified antibodies was evaluated by ELISA following the procedure mentioned in Example 2. The half-maximal effective concentration (EC₅₀) was calculated using GraphPad Prism® software.

| Binder | EC50 |
| --- | --- |
| B5 | 0.104 µg/mL |
| B6 | 0.0442 µg/mL |
| B7 | 0.074 µg/mL |
| B8 | 0.0494 µg/mL |
| B9 | 0.0701 µg/mL |
| B10 | 0.109 µg/mL |
| B11 | 0.0342 µg/mL |

Each binder was assayed against T1, recombinant human PD-1 His-tag protein … (assay: ELISA, PD-1 His-tag coated on plate, anti-human IgG Fc-HRP detection).
Procedure: as §2
The purified chimeric antibodies were 2-fold serial diluted for eleven rounds starting from […] until reaching the final concentration of 0.977 ng/mL. The PD-1 binding activity of purified chimeric antibodies was evaluated by ELISA following the procedure mentioned in Example 2, while the goat anti-human IgG Fcγ-HRP antibody (Jackson Immuno Research) diluted 1:10.000 in PBST was used to detect chimeric antibodies.

| Binder | EC50 |
| --- | --- |
| B12 | 0.0894 µg/mL |
| B13 | 0.0437 µg/mL |
| B14 | 0.0347 µg/mL |
| B15 | 0.0284 µg/mL |

The binders below were run against T1, recombinant human PD-1 His-tag protein … (assay: SPR, Biacore T200, antibody captured on Protein G chip, PD-1 His-tag injected, single-cycle kinetics, 1:1 model).
Procedure: as §1

| Binder | Kd | koff | kon |
| --- | --- | --- | --- |
| B12 | 5.92 nM | 0.000912 s⁻¹ | 154000 M⁻¹ s⁻¹ |
| B13 | 0.577 nM | 0.000285 s⁻¹ | 493000 M⁻¹ s⁻¹ |
| B14 | 0.621 nM | 0.000293 s⁻¹ | 471000 M⁻¹ s⁻¹ |
| B15 | 0.448 nM | 0.000292 s⁻¹ | 653000 M⁻¹ s⁻¹ |

What follows are binders tested against T2, human PD-1 on PD-1-expressing Jurkat effector cells (human, UniProt Q15116 25-288) (assay: cell-based or functional assay).
T2 sequence (Q15116 25-288): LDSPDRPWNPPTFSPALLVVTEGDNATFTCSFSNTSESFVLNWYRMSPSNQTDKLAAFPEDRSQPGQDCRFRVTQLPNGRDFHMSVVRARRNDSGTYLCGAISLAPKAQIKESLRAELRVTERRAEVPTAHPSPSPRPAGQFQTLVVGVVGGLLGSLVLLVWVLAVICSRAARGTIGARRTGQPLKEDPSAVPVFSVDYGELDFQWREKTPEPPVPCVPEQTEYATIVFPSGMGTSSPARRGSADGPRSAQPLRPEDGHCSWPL

| Binder | PD-1/PD-L1 blockade bioassay, IC50 |
| --- | --- |
| B12 | 2.93 µg/mL |
| B13 | 0.43 µg/mL |
| B14 | 0.455 µg/mL |
| B15 | 0.593 µg/mL |

Each binder was assayed against T1, recombinant human PD-1 His-tag protein … (assay: binding kinetics (method not described at the table; presumably SPR as in Example 8)).

| Binder | Kd | koff | kon |
| --- | --- | --- | --- |
| B16 | 0.0582 nM | 0.000288 s⁻¹ | 4.96e+06 M⁻¹ s⁻¹ |
| B17 | 0.0266 nM | 9.31e-05 s⁻¹ | 3.5e+06 M⁻¹ s⁻¹ |
| B18 | 0.0243 nM | 8.47e-05 s⁻¹ | 3.49e+06 M⁻¹ s⁻¹ |
| B19 | 0.0618 nM | 0.000112 s⁻¹ | 1.81e+06 M⁻¹ s⁻¹ |
| B20 | 0.0664 nM | 0.000145 s⁻¹ | 2.18e+06 M⁻¹ s⁻¹ |

Biological target: T2, human PD-1 on PD-1-expressing Jurkat …
Assay: cell-based or functional assay
Remark: another data set of the same source

| Binder | PD-1/PD-L1 blockade bioassay, IC50 |
| --- | --- |
| B5 | 6.58 µg/mL |
| B6 | 0.846 µg/mL |
| B7 | 1.83 µg/mL |
| B8 | 0.843 µg/mL |
| B9 | 2.43 µg/mL |
| B10 | 2.71 µg/mL |
| B11 | 1.21 µg/mL |
